Source: US20200087408A1 (ANAPTYSBIO, published 2020)
Residue numbers refer to the chain shown, from its start.

B1: Chimeric 5D3 (APE3849) (antibody, V domains shown)
VH: QVQLQQSGPELVRPGASVRMSCKASDYTFTNYWMHWVKQRPGQGLEWIGMFDPSNSVTRLNQKFKDKATLNVDKSSNTAYIQFSSLTFEDSAVYYCARTTSMIIGGFAYWGQGTLVTVSS
VL: DIVMTQAAFSNPVTLGTSASISCRSSKSLLHSNGITYFYWYLQRPGQSPQLLIYQMSNLASGVPDRFSGSGSGTDFTLRISRVEAEDVGIYYCAQNLELPLTFGAGTKLELK
B2: APE6904 (antibody, V domains shown)
VH: DLQFQESGPGLVKPSQTLSLTCTVTGYSITADFAWNWIRQPPGKGLEWIGYISYSGDTNYNPSLKSRVTITRDTSKNQFSLKLSSVTAADTAVYFCAIRGPYSFTYWGQGTLVTVSS
VL: DIQMTQSPSSLSASVGDRVTITCRASQWINNYLNWYQQKPGKAPKLLIYYTSMLHSGVPSRFSPSGSGNDYTFTISSLQPEDIATYYCQQGHTLPWTFGGGTKVEIKR
notes: also called 18D4 Humanized
B3: Hzd 18D4 (APE5713) (antibody, V domains shown)
VH: B2 VH with D1Q, L2V, T25S, A31S, T71S
VL: DIQMTQSPSSLSASVGDRVTITCRASQDINNYLNWYQQKPGKAPKLLIYYTSRLHSGVPSRFSPSGSGTDYTFTISSLQPEDIATYYCQQGHTLPWTFGGGTKVEIK
B4: Chimeric 18D4 (APE3847) (antibody, V domains shown)
VH: DVQFQESGPGLVKPSQSLSLTCTVTGYSITSDFAWNWIRQFPGNKLEWMGYISYSGDTNYNPSLKSRISITRDTSKNQFFLQLNSVTTEDTATYFCAIRGPYSFTYWGPGTLVTVSS
VL: DIQMTQTTSSLSASLGDRVTINCRASQDINNYLNWYQQKPDGTIRLLIYYTSRLHSGVPSRFSPNGSGTDYSLTINNLEQEDIATYFCQQGHTLPWTFGGGTKLEIK
B5: Chimeric 1D9 (APE3798) (antibody, V domains shown)
VH: QVQLQQSGPELVKPGALVKISCKASGFTFTSYDINWVRQRPGQGLEWIGWIYPGDGSTKYNEKFKGKATLTADKSSSTAYMQLSSLTSENSAVYFCTRSFYTMDYWGQGTSVTVSS
VL: DIVMTQAAPSVPVTPGESVSISCRSSKSLLHSNGNTYLYWFLQRPGQSPQLLISRMSNLASGVPDRFSGSGSGTAFTLRISRVEAEDVGVYYCMQHLEYPFTFGSGTKLEIK
B6: Hzd 5D3 (APE6060) (antibody, V domains shown)
VH: QVQLVQSGAEVKKPGASVKVSCKASGYTFTNYWMNWVRQAPRQGLEWMGMFHPTGDVTRLNQKFKDRVTMTRDTSTSTVYMELSSLRSEDTAVYYCARTTSMIIGGFAYWGQGTLVTVSS
VL: DIVMTQTPLSLSVTPGQPASISCRSSKSLLHRNAITYFYWYLQKPGQPPQLLIYQMSNLASGVPDRFSGSGSGTDFTLKISRVEAEDVGVYYCAQNLELPLTFGGGTKVEIK
notes: also called 5D3 Humanized
B7: Hzd 5D3 (APE6194) (antibody, V domains shown)
VH: B6 VH with T54Y
VL: B6 VL with Q43H
notes: also called 5D3 Humanized

How the values were obtained:
human IL-36R (on cells) [1] = biological target: T1, human IL-36R (on cells) (human, UniProt Q9HB29 20-575); assay: cell-based or functional assay
T1 sequence (looked up): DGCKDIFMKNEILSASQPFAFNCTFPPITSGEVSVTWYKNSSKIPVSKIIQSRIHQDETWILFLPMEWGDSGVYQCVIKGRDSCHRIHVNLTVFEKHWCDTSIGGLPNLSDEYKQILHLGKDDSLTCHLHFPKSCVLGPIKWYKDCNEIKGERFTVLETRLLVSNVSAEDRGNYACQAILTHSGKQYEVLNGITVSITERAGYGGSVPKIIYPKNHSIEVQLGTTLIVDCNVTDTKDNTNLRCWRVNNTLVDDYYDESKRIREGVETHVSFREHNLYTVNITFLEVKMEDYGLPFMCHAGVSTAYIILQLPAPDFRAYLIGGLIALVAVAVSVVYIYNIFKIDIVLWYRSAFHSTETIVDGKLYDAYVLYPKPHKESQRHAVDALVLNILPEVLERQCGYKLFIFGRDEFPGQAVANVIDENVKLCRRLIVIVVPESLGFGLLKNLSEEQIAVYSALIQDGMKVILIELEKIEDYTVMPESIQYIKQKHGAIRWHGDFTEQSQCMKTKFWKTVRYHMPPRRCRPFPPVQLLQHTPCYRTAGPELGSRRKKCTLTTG

[2] = biological target: T2, extracellular domain of human IL-36R (human, UniProt Q9HB29 20-335); assay: KINEXA 3000 solution-phase equilibrium, soluble human IL-36R extracellular domain
T2 construct: extracellular domain; Immobilised on the chip in the BIACORE assay; soluble and bead-coupled in the KINEXA assay; also called soluble human IL-36R extracellular domain
T2 sequence (looked up): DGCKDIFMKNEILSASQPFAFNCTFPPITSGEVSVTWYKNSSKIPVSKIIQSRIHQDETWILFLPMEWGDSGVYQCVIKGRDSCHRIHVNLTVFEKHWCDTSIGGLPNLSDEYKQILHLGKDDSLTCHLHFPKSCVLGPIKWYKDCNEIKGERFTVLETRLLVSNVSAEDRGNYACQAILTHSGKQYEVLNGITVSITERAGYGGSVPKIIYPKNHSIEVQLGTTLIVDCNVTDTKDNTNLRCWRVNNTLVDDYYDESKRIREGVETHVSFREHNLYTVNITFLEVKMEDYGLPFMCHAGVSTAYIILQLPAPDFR
Protocol: The binding affinities of various purified antibodies comprising immunoglobulin heavy chain (HC) and light chain (LC) polypeptides described herein also were evaluated using a KINEXA® 3000 assay (Sapidyne Instruments, Boise, Id.) assays. KINEXA® technology measures the amount of unbound/free antibody molecule in solution phase after incubation with varying concentrations of antigen. Measuring binding events in the solution phase with micro beads for maximized surface area avoids mass transport limitations and mobility effects inherent to methods that measure binding to a solid phase. For each experiment, 50 μg of soluble human or cyno IL-36R extracellular domain was amine-coupled to 50 mg of UltraLink Biosupport beads (Thermo Fisher Scientific, Waltham, Mass.). […] Antibody-antigen solution was then flowed over antigen-coupled beads at a rate of 0.25 mL/min. Free antibody captured by beads was detected using ALEXA FLUOR™ 647-conjugated AffiniPure Donkey Anti-Human IgG (H+L) (Jackson ImmunoResearch, West Grove, Pa.) (500 ng/ml). The KD and/or ABC (active binding concentration) of antibody was obtained from non-linear regression analysis using a one-site homogeneous binding model in the KINEXA™ Pro Software.

[3] = biological target: cynomolgus IL-36R (on cells, allelic variant not stated) (cynomolgus monkey), A0A2K5; assay: cell-based or functional assay
Chain of cynomolgus IL-36R (on cells, allelic variant not stated) (cynomolgus monkey), A0A2K5 (chain, as listed by the source mutant): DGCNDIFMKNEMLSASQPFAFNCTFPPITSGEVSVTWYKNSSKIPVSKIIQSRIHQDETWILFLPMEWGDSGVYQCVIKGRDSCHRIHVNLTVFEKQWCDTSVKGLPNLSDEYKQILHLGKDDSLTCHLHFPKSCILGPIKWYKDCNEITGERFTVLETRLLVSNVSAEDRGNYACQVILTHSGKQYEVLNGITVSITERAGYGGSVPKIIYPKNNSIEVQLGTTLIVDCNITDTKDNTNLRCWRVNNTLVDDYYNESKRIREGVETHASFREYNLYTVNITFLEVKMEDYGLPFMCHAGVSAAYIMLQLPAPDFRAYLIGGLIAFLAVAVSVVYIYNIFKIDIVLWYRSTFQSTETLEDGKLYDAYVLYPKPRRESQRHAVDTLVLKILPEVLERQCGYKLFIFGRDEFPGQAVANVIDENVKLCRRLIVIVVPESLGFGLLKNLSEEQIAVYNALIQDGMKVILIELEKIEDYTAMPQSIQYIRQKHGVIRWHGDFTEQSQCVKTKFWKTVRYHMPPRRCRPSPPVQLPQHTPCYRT

human IL-36R (on cells) [4] = biological target: T1, human IL-36R (on cells); assay: cell-based or functional assay; remark: listed apart in the source
human IL-36R (on cells) [5] = biological target: T1, human IL-36R (on cells); assay: cell-based or functional assay; remark: listed apart in the source
[6] = biological target: T2, extracellular domain of human IL-36R; assay: BIACORE T200 SPR, human IL-36R extracellular domain immobilised, antibody injected
Protocol: The binding affinities of various purified antibodies comprising immunoglobulin heavy chain (HC) and light chain (LC) polypeptides described herein were evaluated using BIACORE™ T200 […] assays. BIACORE™ T200 evaluation software (GE Healthcare, Buckinghamshire, United Kingdom) is used to determine antibody-antigen binding kinetics and affinity. The extracellular domain of human IL-36R was immobilized at approximately 100 RU onto a CMS sensor chip (GE Healthcare, Waukesha, Wis.) using amine coupling chemistry. HBS-EP+ buffer (0.01 M HEPES, 0.15 M NaCl, 3 mM EDTA, 0.05% Polysorbate, pH 7.6) (Teknova, Hollister, Calif.) was used to reconstitute each antibody at various concentrations Each antibody concentration was then injected for two to three minutes over immobilized antigen at a flow rate of 30 μL/min, and allowed to dissociate for 15 minutes. The surface was regenerated with 60 μL of 3 M MgCl₂ after each cycle. Association and dissociation kinetic constants (kon and koff) were fit globally using a 1:1 binding model with mass transport with the BIACORE™ T200 evaluation software in order to report on- and off-rates (ka and kd, respectively), as well as affinities (KD).

Row | Binder | EC50 (nM), HEK human IL-36R IL-8 luciferase reporter assay, 20 ng/ml hIL-36β (human IL-36R (on cells) [1]) | EC50 (nM), HEK human IL-36R IL-8 luciferase reporter assay, 200 ng/ml hIL-36γ (human IL-36R (on cells) [1]) | Kd [2] | EC50 (nM), HEK cyno IL-36R IL-8 luciferase reporter assay, 300 ng/ml cIL-36γ [3] | EC50 (nM), IL-8 secretion by primary human monocytes, human IL-36β (human IL-36R (on cells) [4]) | EC50 (nM), IL-8 secretion by primary human monocytes, human IL-36γ (human IL-36R (on cells) [4]) | EC50 (nM), IL-8 secretion by primary human keratinocytes, 1 ng/ml human IL-36β (human IL-36R (on cells) [5]) | EC50 (nM), IL-8 secretion by primary human keratinocytes, 10 ng/ml human IL-36α (human IL-36R (on cells) [5]) | EC50 (nM), IL-8 secretion by primary human keratinocytes, 100 ng/ml human IL-36γ (human IL-36R (on cells) [5]) | EC50 (nM), HEK cyno IL-36R IL-8 luciferase reporter assay, 2 µg/ml cIL-36α [3] | EC50 (nM), HEK cyno IL-36R IL-8 luciferase reporter assay, 10 µg/ml cIL-36β [3] | EC50 (nM), IL-8 secretion by primary cynomolgus PBMCs, 10 ng/ml cyno IL-36β [3] | EC50 (nM), IL-8 secretion by primary cynomolgus PBMCs, 50 ng/ml cyno IL-36α [3] | EC50 (nM), IL-8 secretion by primary cynomolgus PBMCs, 250 ng/ml cyno IL-36γ [3] | EC50 (nM), IL-8 secretion by primary cynomolgus keratinocytes, 10 ng/ml cyno IL-36β [3] | EC50 (nM), IL-8 secretion by primary cynomolgus keratinocytes, 50 ng/ml cyno IL-36α [3] | EC50 (nM), IL-8 secretion by primary cynomolgus keratinocytes, 250 ng/ml cyno IL-36γ [3] | EC50 (nM), IL-8 secretion by primary human monocytes, human IL-36α (human IL-36R (on cells) [4]) | EC50 (nM), HEK human IL-36R IL-8 luciferase reporter assay, 50 ng/ml hIL-36α (human IL-36R (on cells) [1]) | Kd [6]
1 | B1 | 1.3 nM | 3.1 nM |  |  |  |  |  |  |  |  |  |  |  |  |  |  |  |  |  | 
2 | B2 |  |  | 0.027 nM |  |  |  |  |  |  |  |  |  |  |  |  |  |  |  |  | 
3 | B3 |  | 11 nM |  |  |  |  |  |  |  |  |  |  |  |  |  |  |  |  |  | 
4 | B4 | 4.2 nM | 3.6 nM |  | 0.51 nM | 6 nM | 3 nM |  |  |  |  |  |  |  |  |  |  |  |  |  | 
5 | B5 | 0.267 nM | 0.093 nM |  |  |  |  |  |  |  |  |  |  |  |  |  |  |  |  |  | 
6 | B6 | 0.24 nM | 0.35 nM |  | 0.29 nM | 0.9 nM | 0.79 nM | 0.217 nM | 0.08 nM | 0.08 nM | 0.067 nM | 0.17 nM | 1.7 nM | 0.98 nM | 1.4 nM | 1.4 nM | 1.4 nM | 1 nM | 0.081 nM | 0.23 nM | 0.05 nM
7 | B7 | 0.3 nM | 0.45 nM |  | 0.31 nM | 0.105 nM | 0.084 nM | 0.164 nM | 0.105 nM | 0.083 nM | 0.073 nM | 0.19 nM | 1.6 nM | 1.5 nM | 1.6 nM | 2 nM | 1.2 nM | 1.2 nM | 0.09 nM | 0.17 nM | 0.022 nM
